Target: PfPDI8 (PF3D7_0827900), 3xV5-tagged (P. falciparum (3D7))
Assay: co-IP

## PfBiP, Hsp70 Binding immunoglobulin Protein (natural protein)
  other: 2 fold
